Results from US20260234276A1 (DOMAIN THERAPEUTICS, published 2026).
Values joined by “and” are separate entries in the source; they are usually repeats but may differ in a detail not shown here. Equal values may be shown once.

Tests used:
human CCR8 [1] = biological target: T1, human CCR8 (human, UniProt P51685 1-355); experiment: cell-based or functional assay
human CCR8 [2] = biological target: T1, human CCR8; experiment: flow cytometry, hCCR8 transfected CHOK1 cells
human CCR8 [3] = biological target: T1, human CCR8; experiment: cell-based or functional assay; remark: listed apart in the source
human CCR8 [4] = biological target: T1, human CCR8; experiment: cell-based or functional assay; remark: listed apart in the source
pm8 = pm8 (human, sulfated tyrosines at Y15, Y16 and Y17); experiment: ELISA on coated peptide [cont.]
Summary of the method: (§1)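 In this direct ELISA, CCR8-related peptides coated at 500 ng/mL are probed with anti-CCR8 mAbs (1 μg/mL, also 1/10 dilution; 90 min, room temperature). Read-out is TMB optical density.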

pm5 = pm5 (human, sulfated tyrosines at Y15 and Y17); experiment: ELISA on coated peptide [cont.]
Summary of the method: as §1

pm3 = pm3 (human, sulfated tyrosine at Y17); experiment: ELISA on coated peptide [cont.]
Summary of the method: as §1

pm6 = pm6 (human, sulfated tyrosines at Y16 and Y17); experiment: ELISA on coated peptide [cont.]
Summary of the method: as §1

human CCR8 [5] = biological target: T1, human CCR8; experiment: competition flow cytometry on hCCR8 transfected CHO cells; blocked ligand CCL1-AF647 [cont.]

Sequence of pm8 (human, sulfated tyrosines at Y15, Y16 and Y17) (peptide, as listed by the source): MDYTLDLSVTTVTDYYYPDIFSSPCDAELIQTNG
Sequence of pm5 (human, sulfated tyrosines at Y15 and Y17) (peptide, as listed by the source): as above
Sequence of pm6 (human, sulfated tyrosines at Y16 and Y17) (peptide, as listed by the source): as above
Sequence of pm3 (human, sulfated tyrosine at Y17) (peptide, as listed by the source): as above

B1: 3-46 (antibody, V domains shown)
VH: EVQLVETGGGLVQPKGSLKLSCAASGFTFNTNAMNWVRQAPGKGLEWVARIRSKSNYYATYYADSVKDRFTISRDDSQSMLYLQMNNLKTEDTAMYYCVRGREMGNYYSMDYWGQGTSVTVSS
VL: DIVMTQAAPSVPVTPGESVSISCRSSKSLLHSNGNTYLYWFLQRPGQSPQLLIYRMSNLASGVPDRFSGSGSGTAFTLRISRVEAEDVGVYYCMQHLEYPFTFGSGTKLEIK
With B1 the “hCCL1 (100 nM) residual response, Protocol #2, mAb 0.08 µg/mL” value (human CCR8 [1]) was 60%, the “hCCL1 (100 nM) residual response, Protocol #2, mAb 0.4 µg/mL” value (human CCR8 [1]) was 35% and the “hCCL1 (100 nM) residual response, Protocol #2, mAb 10 µg/mL” value (human CCR8 [1]) was 21%. For the same binder, the “hCCL1 (100 nM) residual response, Protocol #3, mAb 0.05 µg/mL” value (human CCR8 [1]) was 69%, the “hCCL1 (100 nM) residual response, Protocol #3, mAb 0.5 µg/mL” value (human CCR8 [1]) was 39% and the “hCCL1 (100 nM) residual response, Protocol #3, mAb 5 µg/mL” value (human CCR8 [1]) was 38%. The “% positive cells” value (human CCR8 [2]) was 64.7%, the “MFI fold change to isotype ctrl” value (human CCR8 [2]) was 5.63 fold and the “Top plateau value (% of hCCL1 100 nM) with 5 µg/mL mAb, Protocol #3” value (human CCR8 [3]) was 149%. For the same binder, the “IC50 (Gi2 BRET, pH 6.5)” value (human CCR8 [4]) was 0.019 µg/ml and 0.125 nM, the “IC50 (Gi2 BRET, pH 7.4)” value (human CCR8 [4]) was 0.011 µg/ml and 0.075 nM and the binding result (pm8) was “binds”. B1: binds (pm5); binds (pm3); binds (pm6). The “IC50 (read off the curve)” value (human CCR8 [5]) was about 0.3 µg/mL.
